Source: PMC11880193 (Nature Communications, 2025)

Target: the molecule itself
Assay: SEC

Protein	stoichiometry N	binding result
CODANIN-1 F581E/E652A (LOBE2 dimer interface mutant) (natural protein) MAAVLESLLREEVSVAAVVRWIARSTQGSEDNAGEAAALSSLRALRKEFVPFLLNFLREQSSRVLPQGPPTPAKTPGASAALPGRPGGPPRGSRGARSQLFPPTEAQSTAAEAPLARRGGRRRGPGPARERGGRGLEEGVSGESLPGAGGRRLRGSGSPSRPSLTLSDPPNLSNLEEFPPVGSVPPGPTGTKPSRRINPTPVSEERSLSKPKTCFTSPPISCVPSSQPSALDTSPWGLGLPPGCRSLQEEREMLRKERSKQLQQSPTPTCPTPELGSPLPSRTGSLTDEPADPARVSSRQRLELVALVYSSCIAENLVPNLFLELFFVFQLLTARRMVTAKDSDPELSPAVLDSLESPLFQSIHDCVFFAVQVLECHFQVLSNLDKGTLKLLAENERLLCFSPALQGRLRAAYEGSVAKVSLVMPPSTQAVSFQPETDNRANFSSDRAFHTFKKQRDVFYEVLREWEDHHEEPGWDFEKGLGSRIRAMMGQLSAACSHSHFVRLFQKQLLQMCQSPGGAGGTVLGEAPDVLSMLGADKLGRLWRLQERLMAPQSSGGPCPPPTFPGCQGFFRDFILSASSEQFNQHLMDSLSLKIQELNGLALPQHEPNDEDGESDVDWQGERKQFAVVLLSLRLLAKFLGFVAFLPYRGPAPPPTGELQDSILALRSQVPPVLDVRTLLQRGLQARRAVLTVPWLVEFLSFADHVVPLLEYYRDIFTLLLRLHRSLVLSQESEGKMCFLNKLLLLAVLGWLFQIPTVPEDLFFLEEGPSYAFEVDTVAPEHGLDNAPVVDQQLLYTCCPYIGELRKLLASWVSGSSGRSGGFMRKITPTTTTSLGAQPSQTSQGLQAQLAQAFFHNQPPSLRRTVEFVAERIGSNCVKHIKATLVADLVRQAESLLQEQLVTQGEEGGDPAQLLEILCSQLCPHGAQALALGREFCQRKSPGAVRALLPEETPAAVLSSAENIAVGLATEKACAWLSANITALIRREVKAAVSRTLRAQGPEPAARGERRGCSRACEHHAPLPSHLISEIKDVLSLAVGPRDPDEGVSPEHLEQLLGQLGQTLRCRQFLCPPAEQHLAKCSVELASLLVADQIPILGPPAQYRLERGQARRLLHMLLSLWKEDFQGPVPLQLLLSPRNVGLLADTRPREWDLLLFLLRELVEKGLMGRMEIEACLGSLHQAQWPGDFAEELATLSNLFLAEPHLPEPQLRACELVQPNRGTVLAQS	2	–
CODANIN-1 F868I/E871R (C-terminal coiled-coil mutant) (natural protein) MAAVLESLLREEVSVAAVVRWIARSTQGSEDNAGEAAALSSLRALRKEFVPFLLNFLREQSSRVLPQGPPTPAKTPGASAALPGRPGGPPRGSRGARSQLFPPTEAQSTAAEAPLARRGGRRRGPGPARERGGRGLEEGVSGESLPGAGGRRLRGSGSPSRPSLTLSDPPNLSNLEEFPPVGSVPPGPTGTKPSRRINPTPVSEERSLSKPKTCFTSPPISCVPSSQPSALDTSPWGLGLPPGCRSLQEEREMLRKERSKQLQQSPTPTCPTPELGSPLPSRTGSLTDEPADPARVSSRQRLELVALVYSSCIAENLVPNLFLELFFVFQLLTARRMVTAKDSDPELSPAVLDSLESPLFQSIHDCVFFAVQVLECHFQVLSNLDKGTLKLLAENERLLCFSPALQGRLRAAYEGSVAKVSLVMPPSTQAVSFQPETDNRANFSSDRAFHTFKKQRDVFYEVLREWEDHHEEPGWDFEKGLGSRIRAMMGQLSAACSHSHFVRLFQKQLLQMCQSPGGAGGTVLGEAPDVLSMLGADKLGRLWRLQERLMAPQSSGGPCPPPTFPGCQGFFRDFILSASSFQFNQHLMDSLSLKIQELNGLALPQHEPNDEDGESDVDWQGERKQFAVVLLSLRLLAKFLGFVAFLPYRGPEPPPTGELQDSILALRSQVPPVLDVRTLLQRGLQARRAVLTVPWLVEFLSFADHVVPLLEYYRDIFTLLLRLHRSLVLSQESEGKMCFLNKLLLLAVLGWLFQIPTVPEDLFFLEEGPSYAFEVDTVAPEHGLDNAPVVDQQLLYTCCPYIGELRKLLASWVSGSSGRSGGFMRKITPTTTTSLGAQPSQTSQGLQAQLAQAFFHNQPPSLRRTVEIVARRIGSNCVKHIKATLVADLVRQAESLLQEQLVTQGEEGGDPAQLLEILCSQLCPHGAQALALGREFCQRKSPGAVRALLPEETPAAVLSSAENIAVGLATEKACAWLSANITALIRREVKAAVSRTLRAQGPEPAARGERRGCSRACEHHAPLPSHLISEIKDVLSLAVGPRDPDEGVSPEHLEQLLGQLGQTLRCRQFLCPPAEQHLAKCSVELASLLVADQIPILGPPAQYRLERGQARRLLHMLLSLWKEDFQGPVPLQLLLSPRNVGLLADTRPREWDLLLFLLRELVEKGLMGRMEIEACLGSLHQAQWPGDFAEELATLSNLFLAEPHLPEPQLRACELVQPNRGTVLAQS	–	binds
CODANIN-1 P672L (CDA-I disease mutation) (natural protein) MAAVLESLLREEVSVAAVVRWIARSTQGSEDNAGEAAALSSLRALRKEFVPFLLNFLREQSSRVLPQGPPTPAKTPGASAALPGRPGGPPRGSRGARSQLFPPTEAQSTAAEAPLARRGGRRRGPGPARERGGRGLEEGVSGESLPGAGGRRLRGSGSPSRPSLTLSDPPNLSNLEEFPPVGSVPPGPTGTKPSRRINPTPVSEERSLSKPKTCFTSPPISCVPSSQPSALDTSPWGLGLPPGCRSLQEEREMLRKERSKQLQQSPTPTCPTPELGSPLPSRTGSLTDEPADPARVSSRQRLELVALVYSSCIAENLVPNLFLELFFVFQLLTARRMVTAKDSDPELSPAVLDSLESPLFQSIHDCVFFAVQVLECHFQVLSNLDKGTLKLLAENERLLCFSPALQGRLRAAYEGSVAKVSLVMPPSTQAVSFQPETDNRANFSSDRAFHTFKKQRDVFYEVLREWEDHHEEPGWDFEKGLGSRIRAMMGQLSAACSHSHFVRLFQKQLLQMCQSPGGAGGTVLGEAPDVLSMLGADKLGRLWRLQERLMAPQSSGGPCPPPTFPGCQGFFRDFILSASSFQFNQHLMDSLSLKIQELNGLALPQHEPNDEDGESDVDWQGERKQFAVVLLSLRLLAKFLGFVAFLPYRGPEPPPTGELQDSILALRSQVPLVLDVRTLLQRGLQARRAVLTVPWLVEFLSFADHVVPLLEYYRDIFTLLLRLHRSLVLSQESEGKMCFLNKLLLLAVLGWLFQIPTVPEDLFFLEEGPSYAFEVDTVAPEHGLDNAPVVDQQLLYTCCPYIGELRKLLASWVSGSSGRSGGFMRKITPTTTTSLGAQPSQTSQGLQAQLAQAFFHNQPPSLRRTVEFVAERIGSNCVKHIKATLVADLVRQAESLLQEQLVTQGEEGGDPAQLLEILCSQLCPHGAQALALGREFCQRKSPGAVRALLPEETPAAVLSSAENIAVGLATEKACAWLSANITALIRREVKAAVSRTLRAQGPEPAARGERRGCSRACEHHAPLPSHLISEIKDVLSLAVGPRDPDEGVSPEHLEQLLGQLGQTLRCRQFLCPPAEQHLAKCSVELASLLVADQIPILGPPAQYRLERGQARRLLHMLLSLWKEDFQGPVPLQLLLSPRNVGLLADTRPREWDLLLFLLRELVEKGLMGRMEIEACLGSLHQAQWPGDFAEELATLSNLFLAEPHLPEPQLRACELVQPNRGTVLAQS	2	–
